Data on five proteins can be found in paper PMC5020499, “Crystal structures of archaeal 2-oxoacid:ferredoxin oxidoreductases from Sulfolobus tokodaii” (Scientific Reports, 2016).

Where a chain is given by its changes, count along the chain named. Numbers in names are those of the source.

B1: StOFOR1 (Sulfurisphaera tokodaii str. 7) (protein)
chain 1: MRLSWVIGGAQGTGIDTAANIFGNAVASAGYYIYGNREYYSNIKGRHSYFSLTISDKRVRSNTQKIDILVSFDAETVFQHFYDVKDILIYNKAVETTKIDAVQSMEPELAERIKDFLTKQGYETTVKGALEYASKNNVTLIPVNYDEIAKKVADEMKVPLSVTERVKNIVGITISYKLLGLDVNYLIEAINSTFKQDLYRKMNELAVKDSYDIVESRYNLKPSSKERRRFWLDGNTAVAIGKIYGGVRFQSYYPITPASDESVYIEAHQDVLMEDPITGDKKKGTIVVVQAEDELAAINMAIGAALTGVRAATATSGPGFSLMVEGLGWAGMNEVPVVITYYIRGGPSTGLPTRTAQSDLIFPIFAGHGEFPKIVLASGDHAEAFKDAIWALNLAEKYQTPVIHLVEKTLANSYSTIPYEELELDKLKAERGKIVESGDISYKRFKFTEDGISPRAFLGKATMYYTGDEHNEEGHISEDVVNRTMMYEKRMKKLEVADKEIPEESRVKIYGDLNSRNLIITWGSPTGVLRDILEESNFDFTLLQIRMFSPFPKNLVSKLMEGRDKIITVEGNYLAQTSLLVKMYTGKDVTNSILKWNGRPFLRDELEEALIKVIKDGEKRVVLNGGI
chain 2: MAAFKPQWNDWCPGCGNFGILNAEQQAIVELGVDTKNVVVVSGIGCSGKIPHFFRTPISGVHTLHGRAIAFATGIKLSNPDLVVIVNGGDGDLLGIGAGHFVAAGRRNVDMVVILHDNGVYGLTKGQASPTLKRGEKPKSLPRPNINDAVNPIALAISSGYTFVARGYAYDVKHLKELIKSAIKHKGLALIDVLQPCPTYNDINTKEWYDKRIYKLDTLPDWDPVVKKPEEVNEKIKRAIDKSLEWGDRIPIGIFYQNELVPSYEERIKANSPAYLDYTPAKQLIEKEGKLTTIIDPLLKEREVD
notes: recombinant in E. coli C43(DE3), pET-17b-based pOFORAB, untagged; 70 kDa alpha and 34 kDa beta subunits; (ab)2 heterotetramer with TPP, Mg2+, [4Fe-4S]
B2: StOFOR1 (Sulfurisphaera tokodaii str. 7; Q96Y66:S41A) (protein)
chain 1: B1 chain 1 with S41A
chain 2: B1 chain 2
notes: as for B1
B3: StOFOR1 (Sulfurisphaera tokodaii str. 7; Q96Y66:T349L) (protein)
chain 1: B1 chain 1 with T349L
chain 2: B1 chain 2
notes: as for B1
B4: StOFOR2 (Sulfurisphaera tokodaii str. 7) (protein)
chain 1: MTRIVWMIGGAQGLGVDTSANIFGNAVAKAGYYLFGNREYYSNIKGRHSYFEVVISEKPIRSLSSYVNILASFDAETVFQHFTETKEYLIYNVEYENTTVDLVKSMEPEMAEQVKEALSKERLGFTIKDVLEYLKRRGVKVIGFNYTELIKKIADTFKVPMSVVERAKNMIAVGASYGLLGLKFDYLKDAISSTFKNELFIKFNTMAAELGYNSVPNVYKLQEYKIEKQRIQVDGNTISAMGKLAGGLRFQSYYPITPASDESVYIEANQNLDMIVEGNELRKGGVVVVQAEDELAAINMAVGAALTGVRSATATSGPGFSLMSEGISWAGMNEVPVVITYYMRGAPATGLPTRSGQADLKFALNVGHGEFPRIVIASGDHVEIFWDAIWALNLAEKYQTPVIHIIEKTLANAYSVFEEELITNRPYVIERGKIVKPTSDYFNRFEVTEDGISPRVFLGQASIFYTGDEHNEEGHITENSINRMKMYEKRNKKLETADKEIPEEQRVNIVGDADIVLLTWGSPKGAILDAMEELSKDGIKTMMVQVKMFNPYPKNLMKKILSGKSKIIAVENNYNAQGAEVLAEKTGIFATNYILKWTGRPITREEVIEGIKKILERDEKRVVLYGGA
chain 2: MVERKPVFVDWCPGCGDFGILRAEEMAIRELGINPKSVVIVSGIGCSGKIPHFMNLPISGVHTLHGRSIAFATGIKLSNPSLEVIVNVGDGDGLGIGMGHFVHLGRRNIDIAVLVHNNGVYGLTKGQASPTLHRGEKTKSLPKPNIMDAVNPLAVALAAGYTFVARGYAYDVMHLKELIKKAILHKGSALVDILQPCPTYNDINTKEWYDKRVYKLDNVPGWDPVVRKEEEAQKKFEQAIMKSYEWGEKIPIGIFYQNELVPTFEDRLTSNIPNYREYYPAKQQIEINGISTTKIDELIKAKRI
notes: recombinant in E. coli C43(DE3), genes from S. tokodaii genomic DNA in pOFORAB (pET-17b based), untagged; (ab)2 heterotetramer with TPP, Mg2+, [4Fe-4S]
B5: StOFOR1 (Sulfurisphaera tokodaii str. 7; Q96Y68:K49I) (protein)
chain 1: B1 chain 1
chain 2: B1 chain 2 with K49I
notes: as for B1

Usually Km stands for the concentration of substrate that gives half-maximal velocity. As usually defined, the Vmax is the top rate of the reaction or transport when substrate is in excess.

Substrate in the first series: O=C(O)CCC(=O)C(=O)O
Kind of series: purified protein. To be noted: 0.25 mM CoA, 2 mM methylviologen, 50 mM Tris-HCl pH 8.5, 80 °C. The format is biochemical, Sulfurisphaera tokodaii.
On to B1, for which the Km was found to be 2100 ± 300 µM and the maximal velocity (Vmax) was 2.7 µmol/min/mg.

B2: the Km came to 3200 ± 400 µM and the Vmax is 1.1 µmol/min/mg.

Consider B3, for which the Km came out at 2300 ± 300 µM and the Vmax was determined as 2 µmol/min/mg.

Take B4: the Km worked out at 15000 ± 2000 µM and the Vmax stood at 1.4 µmol/min/mg.

Substrate in a further series: CC(=O)C(=O)O
The experiment in a line: purified protein. The series is classed as biochemical, Sulfurisphaera tokodaii. Particulars: 0.25 mM CoA, 2 mM methylviologen, 50 mM Tris-HCl pH 8.5, 80 °C.
As for B1, the Km is 320 ± 80 µM and the Vmax stood at 7.5 µmol/min/mg.

B2: the Km was determined as 490 ± 90 µM and the Vmax was determined as 2.2 µmol/min/mg.

Take B3: the Km was 510 ± 110 µM and the Vmax was determined as 3.2 µmol/min/mg.

For B5, the Michaelis constant (Km) worked out at 910 ± 120 µM and the Vmax came to 2.1 µmol/min/mg.

On to B4, for which the Km turned out to be 1600 ± 300 µM and the Vmax is 7 µmol/min/mg.
